We go through 40 sequences from the supplement of paper PMC7877785.

This data set is described as follows: self-splicing fitness, log relative to wild type (ln ratio); higher = more splicing; Tetrahymena group I intron in knt gene, E. coli kanamycin selection, DiMSum; sequences stand for … in CUCUCU…GGAGGGAAAAGUUAUCAGGCAUGCACCUGGUAGCUAGUCUUUAAACCAAUAGAUUGCAUCGGUUUAAAAGGCAAGACCGUCAAAUUGCGGGAAAGGGGUCAACAGCCGUUCAGUACCAAGUCUCAGGGGAAACUUUGAGAUGGCCUUGCAAAGGGUAUGGUAAUAAGCUGACGGACAUGGUCCUAACCACGCAGCCAAGUCCUAAGUCAACAGAUCUUCUGUUGAUAUGGAUGCAGUUCACAGACUAAAUGUCGGUCGGGGAAGAUGUAUUCUUCUCAUAAGAUAUAGUCGGACCUCUCCUUAAUGGGAGCUAGCGGAUGAAGUGAUGCAACACUGGAGCCGCUGGGAACUAAUUUGUAUGCGAAAGUAUAUUGAUUAGUUUUGGAGUACUCGUGGUCG
Put shortly:
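Six replicate transformations of E. coli BL21(DE3) with a pET-22b(+) library were grown overnight at 37°C or 30°C. The library randomised all eight P1ex-region intron nucleotides, the intron lying in the knt kanamycin-resistance gene, and plates were LB agar with or without 25 μg/mL kanamycin plus 100 μg/mL carbenicillin, 50 μM IPTG and 0.2% rhamnose. Pooled colonies were amplicon-sequenced on an Illumina HiSeq 2500, and fitness is the DiMSum error-weighted combination of wild-type-normalised replicate fold changes, kanamycin versus none.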

± gives the uncertainty stated by the source.

On to UGGCAGCAAUAUUACGGUGU, for which the “self-splicing fitness (ln)” value by setting is: (30 °C) -3.4 ± 0.14; (37 °C) -2.41 ± 0.16.

Take UGGCAGCAAUAUUACGUAUG: the “self-splicing fitness (ln)” value by setting is: (30 °C) -0.256 ± 0.068; (37 °C) -0.15 ± 0.092.

Consider UGGCAGCAAUAUUACGUCAA, for which the “self-splicing fitness (ln)” value runs as follows: (30 °C) -1.16 ± 0.099; (37 °C) -0.518 ± 0.09.

With UGGCAGCAAUAUUACGUCCU, the “self-splicing fitness (ln)” value is -0.363 ± 0.11 (30 °C) and 0.0307 ± 0.15 (37 °C).

Take UGGCAGCAAUAUUACGUCGA: the “self-splicing fitness (ln)” value (30 °C) was -0.694 ± 0.04 and the “self-splicing fitness (ln)” value (37 °C) came out at 0.401 ± 0.058.

Regarding UGGCAGCAAUAUUACGUGGC, the “self-splicing fitness (ln)” value (30 °C) is -3.92 ± 0.18 and the “self-splicing fitness (ln)” value (37 °C) is -2.72 ± 0.19.

UGGCAGCAAUAUUACGUGGU: the “self-splicing fitness (ln)” value is -2.84 ± 0.15 (30 °C) and -2.99 ± 0.23 (37 °C).

Turning to UGGCAGCAAUAUUACGUGUC, the “self-splicing fitness (ln)” value runs as follows: (30 °C) -3.85 ± 0.19; (37 °C) -2.17 ± 0.19.

Turning to UGGCAGCAAUAUUACGUGUG, the “self-splicing fitness (ln)” value runs as follows: (30 °C) -0.896 ± 0.043; (37 °C) -0.192 ± 0.057.

For the sequence UGGCAGCAAUAUUACGUUAA, the “self-splicing fitness (ln)” value by setting is: (30 °C) -1.16 ± 0.084; (37 °C) -0.28 ± 0.084.

As for UGGCAGCAAUAUUACGUUAC, the “self-splicing fitness (ln)” value by setting is: (30 °C) -4.11 ± 0.46; (37 °C) -2.46 ± 0.25.

In the case of UGGCAGCAAUAUUACGUUUA, the “self-splicing fitness (ln)” value is -0.478 ± 0.084 (30 °C) and 0.426 ± 0.096 (37 °C).

Take UGGCAGCAAUAUUACGUUUU: the “self-splicing fitness (ln)” value is, setting by setting: (30 °C) -2.85 ± 0.14; (37 °C) -0.527 ± 0.13.

Take UGGGAGCAAUAUUACGAAAA: the “self-splicing fitness (ln)” value is -2.22 ± 0.31 (30 °C) and -2.16 ± 0.34 (37 °C).

Regarding UGGGAGCAAUAUUACGAAGU, the “self-splicing fitness (ln)” value (37 °C) is -1.21 ± 0.3.

For the sequence UGGGAGCAAUAUUACGACGG, the “self-splicing fitness (ln)” value was -2.22 ± 0.26 (30 °C) and -1.69 ± 0.39 (37 °C).

With UGGGAGCAAUAUUACGAUAA, the “self-splicing fitness (ln)” value (30 °C) is -0.547 ± 0.44.

In the case of UGGGAGCAAUAUUACGAUAG, the “self-splicing fitness (ln)” value (30 °C) is -3.25 ± 0.32.

Turning to UGGGAGCAAUAUUACGCAAG, the “self-splicing fitness (ln)” value (30 °C) is -2.15 ± 0.36.

UGGGAGCAAUAUUACGCCGG: the “self-splicing fitness (ln)” value is -2.45 ± 0.23 (30 °C) and -2.19 ± 0.31 (37 °C).

As for UGGGAGCAAUAUUACGCGUU, the “self-splicing fitness (ln)” value (30 °C) is -2.33 ± 0.28 and the “self-splicing fitness (ln)” value (37 °C) was -2.02 ± 0.44.

Consider UGGGAGCAAUAUUACGCUAU, for which the “self-splicing fitness (ln)” value reads like this: (30 °C) -1.67 ± 0.29; (37 °C) -2.62 ± 0.38.

Turning to UGGGAGCAAUAUUACGGACG, the “self-splicing fitness (ln)” value was -1.52 ± 0.14 (30 °C) and -0.236 ± 0.15 (37 °C).

Regarding UGGGAGCAAUAUUACGGAGC, the “self-splicing fitness (ln)” value is, setting by setting: (30 °C) -3.98 ± 0.46; (37 °C) -1.65 ± 0.5.

As for UGGGAGCAAUAUUACGGAUG, the “self-splicing fitness (ln)” value runs as follows: (30 °C) -3.69 ± 0.39; (37 °C) -1.14 ± 0.26.

Regarding UGGGAGCAAUAUUACGGGAC, the “self-splicing fitness (ln)” value is -4.71 ± 0.46 (30 °C) and -2.7 ± 0.38 (37 °C).

In the case of UGGGAGCAAUAUUACGGGAU, the “self-splicing fitness (ln)” value is -3.11 ± 0.37 (30 °C) and -2.17 ± 0.29 (37 °C).

Take UGGGAGCAAUAUUACGGGUG: the “self-splicing fitness (ln)” value runs as follows: (30 °C) -3.33 ± 0.47; (37 °C) -0.981 ± 0.26.

Take UGGGAGCAAUAUUACGUAAA: the “self-splicing fitness (ln)” value (30 °C) is -1.97 ± 0.36.

On to UGGGAGCAAUAUUACGUACG, for which the “self-splicing fitness (ln)” value is -2.41 ± 0.26 (30 °C) and -2.34 ± 0.21 (37 °C).

Take UGGGAGCAAUAUUACGUAUA: where the note is “37 °C”, the “self-splicing fitness (ln)” value was -2.74 ± 0.35.

In the case of UGGGAGCAAUAUUACGUCGU, the “self-splicing fitness (ln)” value runs as follows: (30 °C) -2.14 ± 0.2; (37 °C) -2 ± 0.46.

In the case of UGGGAGCAAUAUUACGUCUU, the “self-splicing fitness (ln)” value (30 °C) was -3.74 ± 0.35 and the “self-splicing fitness (ln)” value (37 °C) was -2.54 ± 0.3.

For the sequence UGGGAGCAAUAUUACGUUAC, the “self-splicing fitness (ln)” value (30 °C) was -2.73 ± 0.47.

Take UGGUAGCAAUAUUACGACAC: the “self-splicing fitness (ln)” value is, setting by setting: (30 °C) -2.43 ± 0.32; (37 °C) -1.69 ± 0.18.

With UGGUAGCAAUAUUACGACAG, the “self-splicing fitness (ln)” value runs as follows: (30 °C) -0.598 ± 0.3; (37 °C) -0.713 ± 0.38.

As for UGGUAGCAAUAUUACGAGAA, the “self-splicing fitness (ln)” value (37 °C) was -1.11 ± 0.36.

Turning to UGGUAGCAAUAUUACGAUAA, the “self-splicing fitness (ln)” value runs as follows: (30 °C) -1.45 ± 0.21; (37 °C) -0.6 ± 0.24.

As for UGGUAGCAAUAUUACGAUCA, the “self-splicing fitness (ln)” value reads like this: (30 °C) -0.00935 ± 0.1; (37 °C) 0.325 ± 0.13.

Consider UGGUAGCAAUAUUACGAUCC, for which the “self-splicing fitness (ln)” value is -0.523 ± 0.11 (30 °C) and -0.731 ± 0.16 (37 °C).
